The record followed here is paper PMC13104032, “Prion Protein-Derived Cell-Penetrating Peptide Inhibits Type II Diabetes-Associated Islet Amyloid Polypeptide Aggregation and Cytotoxicity” (Biochemistry, 2026).

No end group written: not given here.

The assay concerns the target T1, human islet amyloid polypeptide (IAPP), C-terminally amidated (human, C-terminal amide).
T1 construct: islet amyloid polypeptide (amylin), human, the 37-residue peptide hormone, residues 1-37; numbers count on: the mature protein; also called amylin
T1 chain: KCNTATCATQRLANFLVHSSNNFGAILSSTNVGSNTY
The experiment in a line: native MS. Particulars: both partners purified.

A word on the stoichiometry N: it is the number of molecules, sites or subunits per partner or assembly. Consider MLRTKDLIWTLFFLGTAVSKKRPKP-NH2 (also called NPr; CPP) [NCAM1-PrP (NCAM1(1-19)-PrP(23-28)) cell-penetrating peptide construct], for which the “stoichiometry N” value turned out to be 1.
